What was measured:
[1] = biological target: IL-1RAcP-ECD-Fc, wild type (mouse) (UniProt Q61730); experiment: SPR; equilibrium; Biacore T200, 25 °C, 10 mM Hepes (pH 7.9), 150 mM NaCl, 0.05% Tween-20; IL-1RAcP-ECD-Fc captured (about 700 RU) by anti-Fc antibodies immobilised on a CM5 chip; PTPδ Ig1–Fn1 variants or mutants injected as analytes, 15.6 to 4,000 nM
[2] = biological target: IL1RAPL1-ECD-His6, wild type (mouse) (UniProt P59823)
[3] = biological target: IL1RAPL1-ECD-His6, wild type (mouse) (UniProt P59823); experiment: SPR; equilibrium; Biacore T200, 25 °C, 10 mM Hepes (pH 7.9), 150 mM NaCl, 0.05% Tween-20; IL1RAPL1-ECD-His6 amine-coupled on a CM5 chip (about 2,000 RU); PTPδ Ig1–Fn1 variants or mutants injected as analytes, 15.6 to 4,000 nM
IL1RAP = biological target: T1, IL1RAP (Mus musculus (Mouse), UniProt Q61730); experiment: SPR equilibrium 25C, PTPRD Ig1-Fn1 analyte
T1 chain: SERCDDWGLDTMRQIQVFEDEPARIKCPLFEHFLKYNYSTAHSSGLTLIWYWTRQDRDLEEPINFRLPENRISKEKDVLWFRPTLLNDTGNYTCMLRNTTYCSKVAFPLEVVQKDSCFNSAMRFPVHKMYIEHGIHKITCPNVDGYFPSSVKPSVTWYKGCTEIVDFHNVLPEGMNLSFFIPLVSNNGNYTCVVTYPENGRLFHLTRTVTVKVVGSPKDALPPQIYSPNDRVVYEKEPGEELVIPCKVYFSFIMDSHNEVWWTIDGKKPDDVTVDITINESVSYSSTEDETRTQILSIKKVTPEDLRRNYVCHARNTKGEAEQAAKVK

IL1RAPL1 = biological target: T2, IL1RAPL1 (Mus musculus (Mouse), UniProt P59823); experiment: SPR equilibrium 25C, PTPRD Ig1-Fn1 analyte
T2 chain: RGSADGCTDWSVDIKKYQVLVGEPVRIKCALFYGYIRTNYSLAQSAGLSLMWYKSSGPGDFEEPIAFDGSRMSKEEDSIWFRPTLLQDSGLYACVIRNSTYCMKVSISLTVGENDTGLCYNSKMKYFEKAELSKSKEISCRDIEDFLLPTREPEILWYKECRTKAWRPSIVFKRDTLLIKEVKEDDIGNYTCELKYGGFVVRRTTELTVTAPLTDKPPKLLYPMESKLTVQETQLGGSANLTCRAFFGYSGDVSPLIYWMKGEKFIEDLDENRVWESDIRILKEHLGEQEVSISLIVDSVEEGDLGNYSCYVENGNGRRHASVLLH

Sequence of IL1RAPL1-ECD-His6, wild type (mouse) (P59823 19-352): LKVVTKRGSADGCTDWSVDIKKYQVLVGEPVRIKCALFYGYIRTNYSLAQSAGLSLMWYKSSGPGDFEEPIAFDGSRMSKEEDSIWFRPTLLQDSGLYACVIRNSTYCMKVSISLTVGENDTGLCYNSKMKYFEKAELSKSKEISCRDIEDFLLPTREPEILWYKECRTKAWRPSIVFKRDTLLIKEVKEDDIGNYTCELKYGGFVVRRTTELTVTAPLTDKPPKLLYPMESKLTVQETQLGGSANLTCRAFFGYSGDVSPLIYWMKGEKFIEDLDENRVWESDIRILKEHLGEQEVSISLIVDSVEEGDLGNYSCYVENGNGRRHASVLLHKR

PTPδ Ig1–Fn1 E286A (domain or fragment)
Kd [1]: 5300 nM

PTPδ Ig1–Fn1 R75A (domain or fragment)
synaptogenic (postsynapse-inducing) activity: accumulation of Shank2 in cortical neurons around magnetic beads conjugated with PTPδ-ECD-Fc R75A, against wild-type PTPδ-ECD-Fc [2]: 7% | Kd [3]: 2800 nM | Kd [1]: 1100 nM

PTPδ Ig1–Fn1 R196A (domain or fragment)
Kd [3]: 1700 nM | Kd [1]: 890 nM

PTPδ Ig1–Fn1 Y273A (domain or fragment)
Kd [3]: 860 nM

PTPδ Ig1–Fn1 splicing variant meA3/+ (domain or fragment)
Kd [1]: 510 nM

PTPδ Ig1–Fn1 splicing variant meA3/− (domain or fragment)
Kd [1]: 2800 nM

PTPδ Ig1–Fn1 splicing variant meA6/+ (domain or fragment)
Kd [3]: 810 nM | Kd [1]: 730 nM

PTPδ Ig1–Fn1 splicing variant meA6/− (domain or fragment)
Kd [1]: 2300 nM

PTPδ Ig1–Fn1 splicing variant meA9/− (domain or fragment)
Kd [3]: 800 nM | Kd [1]: 2000 nM

PTPδ Ig1–Fn1 splicing variant −/+ (no meA, with meB) (domain or fragment)
Kd [1]: 2200 nM

PTPδ Ig1–Fn1 splicing variant −/− (lacking both meA and meB) (domain or fragment)
Kd [1]: 2400 nM

PTPδ Ig1–Fn1, meB replaced by Gln-Leu-Glu-Gln (domain or fragment)
Kd [3]: 160 nM | Kd [1]: 910 nM

PTPδ Ig1–Fn1, meB replaced by Gly-Ser-Ser-Gly (domain or fragment)
Kd [3]: 140 nM | Kd [1]: 640 nM

PTPδ Ig1–Fn1, meB replaced by three tandem units of meB (domain or fragment)
Kd [3]: 420 nM | Kd [1]: 3800 nM

PTPδ Ig1–Fn1, meB replaced by two tandem units of meB (domain or fragment)
Kd [3]: 150 nM | Kd [1]: 1500 nM

B1: PTPRD_A6B0 (protein)
chain: ETPPRFTRTPVDQTGVSGGVASFICQATGDPRPKIVWNKKGKKVSNQRFEVIEFDDGSGSVLRIQPLRTPRDEAIYECVASNNVGEISVSTRLTVLREDQIPRGFPTIDMGPQLKVVERTRTATMLCAASGNPDPEITWFKDFLPVDTSNNNGRIKQLRSGGTPIRGALQIEQSEESDQGKYECVATNSAGTRYSAPANLYVRVRRVPPRFSIPPTNHEIMPGGSVNITCVAVGSPMPYVKWMLGAEDLTPEDDMPIGRNVLELNDVRQSANYTCVAMSTLGVIEAIAQITVKA
Kd (IL1RAP): 2300 nM | Kd (IL1RAPL1): > 4000 nM

B2: PTPRD_A3B0 (protein)
chain: ETPPRFTRTPVDQTGVSGGVASFICQATGDPRPKIVWNKKGKKVSNQRFEVIEFDDGSGSVLRIQPLRTPRDEAIYECVASNNVGEISVSTRLTVLREDQIPRGFPTIDMGPQLKVVERTRTATMLCAASGNPDPEITWFKDFLPVDTSNNNGRIKQLRSESIGALQIEQSEESDQGKYECVATNSAGTRYSAPANLYVRVRRVPPRFSIPPTNHEIMPGGSVNITCVAVGSPMPYVKWMLGAEDLTPEDDMPIGRNVLELNDVRQSANYTCVAMSTLGVIEAIAQITVKA
Kd (IL1RAP): 2800 nM | Kd (IL1RAPL1): > 4000 nM

B3: PTPRD_A3B1 (protein)
chain: ETPPRFTRTPVDQTGVSGGVASFICQATGDPRPKIVWNKKGKKVSNQRFEVIEFDDGSGSVLRIQPLRTPRDEAIYECVASNNVGEISVSTRLTVLREDQIPRGFPTIDMGPQLKVVERTRTATMLCAASGNPDPEITWFKDFLPVDTSNNNGRIKQLRSESIGALQIEQSEESDQGKYECVATNSAGTRYSAPANLYVRELREVRRVPPRFSIPPTNHEIMPGGSVNITCVAVGSPMPYVKWMLGAEDLTPEDDMPIGRNVLELNDVRQSANYTCVAMSTLGVIEAIAQITVKA
Kd (IL1RAP): 510 nM | Kd (IL1RAPL1): > 4000 nM

B4: PTPRD_A6B1 (protein)
chain: ETPPRFTRTPVDQTGVSGGVASFICQATGDPRPKIVWNKKGKKVSNQRFEVIEFDDGSGSVLRIQPLRTPRDEAIYECVASNNVGEISVSTRLTVLREDQIPRGFPTIDMGPQLKVVERTRTATMLCAASGNPDPEITWFKDFLPVDTSNNNGRIKQLRSGGTPIRGALQIEQSEESDQGKYECVATNSAGTRYSAPANLYVRELREVRRVPPRFSIPPTNHEIMPGGSVNITCVAVGSPMPYVKWMLGAEDLTPEDDMPIGRNVLELNDVRQSANYTCVAMSTLGVIEAIAQITVKA
Kd (IL1RAP): 730 nM | Kd (IL1RAPL1): 810 nM

B5: PTPRD_A9B0 (protein)
chain: ETPPRFTRTPVDQTGVSGGVASFICQATGDPRPKIVWNKKGKKVSNQRFEVIEFDDGSGSVLRIQPLRTPRDEAIYECVASNNVGEISVSTRLTVLREDQIPRGFPTIDMGPQLKVVERTRTATMLCAASGNPDPEITWFKDFLPVDTSNNNGRIKQLRSESIGGTPIRGALQIEQSEESDQGKYECVATNSAGTRYSAPANLYVRVRRVPPRFSIPPTNHEIMPGGSVNITCVAVGSPMPYVKWMLGAEDLTPEDDMPIGRNVLELNDVRQSANYTCVAMSTLGVIEAIAQITVKA
Kd (IL1RAP): 2000 nM | Kd (IL1RAPL1): 800 nM

B6: PTPRD_A0B0 (protein)
chain: ETPPRFTRTPVDQTGVSGGVASFICQATGDPRPKIVWNKKGKKVSNQRFEVIEFDDGSGSVLRIQPLRTPRDEAIYECVASNNVGEISVSTRLTVLREDQIPRGFPTIDMGPQLKVVERTRTATMLCAASGNPDPEITWFKDFLPVDTSNNNGRIKQLRSGALQIEQSEESDQGKYECVATNSAGTRYSAPANLYVRVRRVPPRFSIPPTNHEIMPGGSVNITCVAVGSPMPYVKWMLGAEDLTPEDDMPIGRNVLELNDVRQSANYTCVAMSTLGVIEAIAQITVKA
Kd (IL1RAP): 2400 nM | Kd (IL1RAPL1): > 4000 nM

B7: PTPRD_A0B1 (protein)
chain: ETPPRFTRTPVDQTGVSGGVASFICQATGDPRPKIVWNKKGKKVSNQRFEVIEFDDGSGSVLRIQPLRTPRDEAIYECVASNNVGEISVSTRLTVLREDQIPRGFPTIDMGPQLKVVERTRTATMLCAASGNPDPEITWFKDFLPVDTSNNNGRIKQLRSGALQIEQSEESDQGKYECVATNSAGTRYSAPANLYVRELREVRRVPPRFSIPPTNHEIMPGGSVNITCVAVGSPMPYVKWMLGAEDLTPEDDMPIGRNVLELNDVRQSANYTCVAMSTLGVIEAIAQITVKA
Kd (IL1RAP): 2200 nM | Kd (IL1RAPL1): > 4000 nM

B8: PTPRD_A9B1 (protein)
chain: ETPPRFTRTPVDQTGVSGGVASFICQATGDPRPKIVWNKKGKKVSNQRFEVIEFDDGSGSVLRIQPLRTPRDEAIYECVASNNVGEISVSTRLTVLREDQIPRGFPTIDMGPQLKVVERTRTATMLCAASGNPDPEITWFKDFLPVDTSNNNGRIKQLRSESIGGTPIRGALQIEQSEESDQGKYECVATNSAGTRYSAPANLYVRELREVRRVPPRFSIPPTNHEIMPGGSVNITCVAVGSPMPYVKWMLGAEDLTPEDDMPIGRNVLELNDVRQSANYTCVAMSTLGVIEAIAQITVKA
Kd (IL1RAP): 680 nM | Kd (IL1RAPL1): 150 nM

From article PMC4423211 (2015)
